assay: soluble on expression in E. coli; label from the status in PepcDB or PDB records

| Sequence | soluble on expression in E. coli |
| --- | --- |
| MENVTNFPLLQLPSKTIQVVLSIMSPFELINFSKSSAEAKKVVKQFANAKRRELYKFKVCIGLIPFVAFV | not soluble |
| MQMQVLTNTKFETVAFQWPAGFYSDGIHIGLRRHKKDFGWLFSKVPASAAGTYTTNQFQAAPTKLTKQMIDQGHQLQGLLLNSAIANSCTGEQGWQNALQEQAWLANKLNVAPNLIGVASTGLIGAQLPMDKIKNGLPQLTPTKSDAVTYAVLTTDQHPKTVCVQCELSGQLVTLTGFAKGSGMIHPKMATMLGFVTTDAQIDGPVLQDMLSTNVDQTFNQITVDGDTSTNDMVVTLANGLADNPSLQAGTTDYDIFNQALHYVLGQLAKQIAADGEGATKLVECNVVHAATTFDGQQIAKAIVGSNLVKAAIFGEDPNWGRIISTIGATDADIDVATVDIEMNGVLLVQQSLAVDFDMAAVQATLRDNQIMIDVDLHHGTASGQAWGCDLTYNYVKINASYHTLEHHHHHH | not soluble |
| MSLMIRAITIFVTNYSKISDYTEKLSKLNDNNIWSKRISLPPTPIDLSLSKLIELLPTTHSEIIFSLINLQEKDKRLREIKDILKSDKRIYVHVLVKTTDNLKDLAKLIISLEPEEASRFALLFNQDFLLTPYFPTSSANTVYDSFGISLLYVDEFKQGKINEALSKADTIGRQLEKKLNIKYLGIDASLSPWMESSVGEIVESRSKKMFDISNLSAVAEINREIFEGVWRNRVNPIGFSELMLPIAEDNLLRERVKEGSLTLKDLLLMSYVCVAGIDMVGIYSDLVTYENILKSVYYIQYTKRKPYGVRMIPTNGSPVLTKMFGEIPEVKVVEGHHHHHH | soluble |
| MERVPLLPRRFSARPQGNQEAQERTAVKCEQVRYAIQEVIGRGAFGEVSSAEVVGTRDLVAIKRVIHDGRLRQRELTLMRDHLGPNTQQGGVSSLDVGNGVGAHATSVTGSNGEEANGTTAIDGLESWNMPTIVPYHPCVVKLLDHFFASDPSGVQYLFMVMDYIPLDVRRLHHMFLRQREQQMPIILVKVIMFQLARALAFLHARGICHRDVKPNNILVDQETGVVKLCDFGSAKKMQAVGGEGPREKNVPYIFSRYYRAPELLLGSQYYHFHVDMWAFGCVLAELLCGKVLFKGSSSTMDQLVEIIKVLGKPSERELFALNPQSAGSALIRTWGDSHNASQLSPTPSGPLPSSNSANADYMQRRSAPRVKSLLWVEVLPPNTSQAALSLIEQLLRYTPEERLTSAEVLEHVFFDELFSDDARLPNGAPLPASMFQVTREEAEILPPWLLERMAAAEGVAKG | soluble |
| MSLKAAVLKNYGTLPEYQEFPEPKPKNYDELLVTPIASSVKRLDVIRAAGKHYTKFSELPAVMGMDGVAKLDNNSRVYAMGITGMMAEKALIDQRTMTVLPDGLDAGLAAALPNALIGSDLALLERGKIKTGDVVFINGATGLTGSLAVQMAKLRGAKRVIVTGRDPIKLQHLKDLGAYLTITTNQPDNSFVKELINAYNQSPFNLILDYLWGHPAELIIEALRRIRFLNSLKYISIGSLAGEGISVPSQLLRSKDLELIGSGIGSLDPNAVQVYMQKHLTEIFDYANQGKLSMELKSFPLDKISSAWISAPAVITIEGHHHHHH | not soluble |
| MSLSTADALDDENTFKILVATDIHLGFMEKDAVRGNDTFVTLDEILRLAQENEVDFILLGGDLFHENKPSRKTLHTCLELLRKYCMGDRPVQFEILSDQSVNFGFSKFPWVNYQDGNLNISIPVFSIHGNHDDPTGADALCALDILSCAGFVNHFGRSMSVEKIDISPVLLQKGSTKIALYGLGSIPDERLYRMFVNKKVTMLRPKEDENSWFNLFVIHQNRSKHGSTNFIPEQFLDDFIDLVIWGHEHECKIAPTKNEQQLFYISQPGSSVVTSLSPGEAVKKHVGLLRIKGRKMNMHKIPLHTVRQFFMEDIVLANHPDIFNPDNPKVTQAIQSFCLEKIEEMLENAERERLGNSHQPEKPLVRLRVDYSGGFEPFSVLRFSQKFVDRVANPKDIIHFFRHREQKEKTGEEINFGKLITKPSEGTTLRVEDLVKQYFQTAEKNVQLSLLTERGMGEAVQEFVDKEEKDAIEELVKYQLEKTQRFLKERHIDALEDKIDEEVRRFRETRQKNTNEEDDEVREAMTRARALREGHHHHHH | not soluble |
| MGLAQSHSRTPSRDPLPNDHQVMDVYEESGPRRGRKRKAAKGSEIEMKKVAKLNTCAYVYQKLFLQGENSDIVLAACGREWRVHKLYLKQTKFFESMFDGLWTESNSGRVQMEITDPNIDADGLNSVLGSLYHNEIEIDLDKIEGTVAAASYIVLDSVTDRCSEMMIEALSTKNAVRFYDVSTKYGLEKVREKSMEVLLHQFWKIMTDREKLNEVDRQLFVTLLNSPNLLIIEGEFDLYKVVKSWIYMREVPDCCKDDSPETFTQNASKFFKESKTSMFIKYADIFASLRIEQFLTCSETIKTVKSDALIPLSIVDEMTSALWSSLLENEESPKTLEMDDDEFFKRCIRLGRSLDSFPKCWRWIGFNFGVDLLLHVNDYSVCIKRNCLNQKAPYSVNLKSKHVLHYRLVICDSNGQILYDSGKTTWEMKPDEARTIYRMSEDLATQISVHFQYLIHQPICSTGHYVNKYLDDQNSTDDEDDEEEEDDDGDDEEDSS | not soluble |
| MSQTEPPEDLMQYEAMAQDALRGVVKAALKKAAAPGGLPEPHHLYITFKTKAAGVSGPQDLLSKYPDEMTIVLQHQYWDLAPGETFFSVTLKFGGQPKRLSVPYAALTRFYDPSVQFALQFSAPEIIEDEPEPDPEPEDKANQGASGDEGPKIVSLDQFRKKLEHHHHHH | soluble |
| MNYVPDTSVIVDGRFTAFISEREGSNVILPEAMLSEIEHQANEGRAIGFAALEELKKLRKMESEGKISIEIEGERPKEWQIKRAKSGEIDEMIRQVAFQYDATLVTGDIIQRDVAIVKGITVEYLSPPEKIIKNIEE | not soluble |
| MQNDNAKPISISKQLVYDAFLRVKANRGSAGIDKVTLEDYEKNLRGNLYKLWNRMSSGSYFPPSVKLVEIPKSTGGKRPLGIPTVSDRVAQMAVVMLITPSIEPCFHEDSYAYRPHRSAHDAVGKARERCWKYAWVLDMDISKFFDTIDHELLLKALKRHTQEKWVLMYIERWLKVPYEKSDGSQVDRALGVPQGSVIGPVLANLFLHYTFDKWMEKNFPRVPFERYADDTICHCHSLKQAEYMQAMIQQRFECCRLRLNEEKTKIVYCKSSRQKECYPNVTFDFLGFTFQPRESVDKYGNRFTGFLPAISRKSMKRINETMRSWHLNRHSNLTLEHLASDINPIVRGWMTYYGKFYPTRLKWFMQTLNGRLARWVMCKFERYRHRFYPAQEWLARIAEKEGLIFYHWKCGALPRFTNKEKVSSQLIMVK | soluble |
| MGSDKIHHHHHHMAENNTPQETEQDQEARFREEFEVGGKDRQLSEEEQLEQLGSYIDAHYPVPDFTPPWAGGAGDPDPADRYIAHLPDRTTHTAMIMLGSGLDHSMPGVAFIGGVSVDDVPEVGGAIFHPSNPTGRWAVSFHSGGWWRGSGDALEFQWRPEVAAAAELSGTTILDLDYPLAPGHNLHDMNEVVGKAVGYARHHNPVSITGWGYSSGAALAAINASLFDALVLTFPDLGSVEKLPAEIRGDAVVPAAAAWPTTFVQIAAQDEIAERPGELGDATVKEYVSRHRISTPKVAREKITDVAEFLKTVC | not soluble |
| MAHHHHHHMPENDEHVVVQACSVRVALPASTQPCGVEDAVQHCLHAARAIVQINLVRGTPRVALQLLACRTDACGEQHTASQVLDESPRRLQYALLLRGFEQRGGPVNRLDHTSLACAMCVPNYFSPHHFGAAAVPFFRTYHVTEALAKRRYADAAVMMACLEVETVAEASTEVPPWLARALQLLCRGEDREGVWQAWWIHEVPAATQRRMVCAKSDLVWNVVASHRLQELVAATGGCRDVLLAAAPKPGDFVFQLEEAEDSGATSAALAPVALSAPVTAVYSQAQAARYSVHDIALPLVLDASSEFEGCESLAVIEAQLGFTHDRRRHLSLHPSQRPCQSHTSLPAVAQTNETVFRPLLVEATGYPRATRPWCRSFPEPSVGPAFDRPKAALESNATVFALATDWDLASQTAVARDYAAKSRGPRACVWPLSKRGRALTDRLPAGLMTVASADGSSLLGGASTTNYHGSRCLAIHCTLPARVSLANFVSELAAVEDLRDSQA | not soluble |
| MAGAMRKMAVYLGLVEDDGYDGRGFDPDDDFEPELDPEPERDHRRHEPAHQSHGAHQSQRDEEVRVVQPPAQREPMPRAASLAAESSRPARIAPVASITQERASLEKSAPVIMPKVVSEREPYRITTLHPRTYNEARTIGEHFREGTPVIMNLTEMDDTDAKRLVDFAAGLVFGLHGSIERVTQKVFLLSPANVDVTAEDKARIAEGGFFNQSLEHHHHHH | not soluble |
| AIKDAATKLFDPYEILGISTSASDRDIKSAYRKLSVKFHPDKLAKGLTPDEKSVMEETYVQITKAYESLTDELVRQNYLKYGHPDGPQSTSHG | not soluble |
| MKCLVTGGNVKVLGKAVHSLSRIGDELYLEPLEDGLSLRTVNSSRSAYACFLFAPLFFQQYQAATPGQDLLRCKILMKSFLSVFRSLAMLEKTVEKCCISLNGRSSRLVVQLHCKFGVRKTHNLSFQDCESLQAVFDPASCPHMLRAPARVLGEAVLPFSPALAEVTLGIGRGRRVILRSYHEEEADSTAKAMVTEMCLGEEDFQQLQAQEGVAITFCLKEFRGLLSFAESANLNLSIHFDAPGRPAIFTIKDSLLDGHFVLATLS | soluble |
| VCEKGFEAGDNKLGGALNAKHVEKYGDNFKNGMHKPEFHEDGLHKPMEVGGKKFESGFHYLLECHELGGKNASGGYGGPLCEDPYGSEVQAMTEKLLKEADSDRTLCFNNFQDPCPQLTKEQVAMCKGFDYGDKTLKLPCGPLPWPAGLPEPGYVPKTNPLHGRWITVSGGQAAFIKEAIKSGMLGAAEANKIVADTDHHQTGGMYLRINQFGDVCTVDASVAKFARAKRTWKSGHYFYEPLVSGGNLLGVWVLPEEYRKIGFFWEMESGRCFRIERRAFPVGPYTFMRQATEVGGKISFVFYVKVSNDPESDPIPLQSRDYTALAGRDNAPTNLGKPYPTLAKDLDYPKKRDGWLEKNEKEMLRQRNIVSSTF | soluble |
| MLKIQAYFNETADLPCQFANSQNQSLSELVVFWQDQENLVLNEVYLGKEKFDSVHSKYMGRTSFDSDSWTLRLHNLQIKDKGLYQCIIHHKKPTGMIRIHQMNSELSVLA | soluble |
| MELWRQCTHWLIQCRVLPPSHRVTWEGAQVCELAQALRDGVLLCQLLNNLLPQAINLREVNLRPQMSQFLCLKNIRTFLSTCCEKFGLKRSELFEAFDLFDVQDFGKVIYTLSALSWTPIAQNKGIMPFPTEDSALNDEDIYSGLSDQIDDTAEEDEDLYDCVENEEAEGDEIYEDLMRLESVPTPPKMTEYDKRCCCLREIQQTEEKYTDTLGSIQQHFMKPLQRFLKPQDMETIFVNIEELFSVHTHFLKELKDALAGPGATTLYQVFIKYKERFLVYGRYCSQVESASKHLDQVATAREDVQMKLEECSQRANNGRFTLRDLLMVPMQRVLKYHLLLQELVKHTQDATEKENLRLALDAMRDLAQCVNEVKRDNETLRQITNFQLSIENLDQSLANYGRPKIDGELKITSVERRSKTDRYAFLLDKALLICKRRGDSYDLKASVNLHSFQVRDDSSGERDNKKWSHMFLLIEDQGAQGYELFFKTRELKKKWMEQFEMAISNIYPENATANGHDFQMFSFEETTSCKACQMLLRGTFYQGYRCYRCRAPAHKECLGRVPPCGRHGQDFAGTMKKDKLHRRAQDKKRNELGLPKMEVFQEYYGIPPPPGAFGPFLRLNPGDIVELTKAEAEHNWWEGRNTATNEVGWFPCNRVHPYVHGPPQDLSVHLWYAGPMERAGAEGILTNRSDGTYLVRQRVKDTAEFAISIKYNVEVKHIKIMTSEGLYRITEKKAFRGLLELVEFYQQNSLKDCFKSLDTTLQFPYKEPERRAISKPPAGSTKYFGTAKARYDFCARDRSELSLKEGDIIKILNKKGQQGWWRGEIYGRIGWFPSNYVEEDYSEYC | soluble |

Source: the DeepSol protein solubility set
